Measured values reported in patent US20200010570A1 (SICHUAN KELUN BIOTECH BIOPHARMACEUTICAL, published 2020).
Blank lines part the entries; values can stand above or below the binder they belong to.

Tests used:
[1] = molecular target: T1, PDL-1 on the cell surface (293T cells expressing PDL-1) (human, UniProt Q9NZQ7 19-290); assay: FACS, cells expressing PDL-1, method of Example 8; column 'Cell affinity by FACS'
[2] = molecular target: T2, recombinant protein PDL-1ECD-mFc (human, UniProt Q9NZQ7 19-238); assay: indirect ELISA, method of Example 9; column 'Affinity by ELISA (nM)'
T2 construct: also called PDL-1-mFc; human PDL-1 (coated antigen); not shown: a TEV site before it is implied by the TEV digestion of
T2 sequence (Q9NZQ7 19-238): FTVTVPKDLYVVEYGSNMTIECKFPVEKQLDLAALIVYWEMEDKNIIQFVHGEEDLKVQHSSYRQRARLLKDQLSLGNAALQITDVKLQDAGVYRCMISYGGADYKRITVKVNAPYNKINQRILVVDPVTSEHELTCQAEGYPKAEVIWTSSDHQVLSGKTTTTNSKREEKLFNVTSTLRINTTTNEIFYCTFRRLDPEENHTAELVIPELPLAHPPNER

[3] = molecular target: T1, PDL-1 on the cell surface (293T cells …); assay: FACS, cells expressing PDL-1, method of Example 8
[4] = molecular target: T2, recombinant protein PDL-1ECD-mFc; assay: competitive ELISA, method 'described in Example 13'; column 'Affinity by competitive ELISA (nM)'; competitor not given
[5] = molecular target: T3, PDL-1 antigen (PDL-1-mFc digested with TEV protease) (human, UniProt Q9NZQ7 19-238); assay: Fortebio, PDL-1 on sensor, antibody then PD-1 10 µg/ml; competitor PD-1
T3 construct: the whole entry is named
T3 sequence (Q9NZQ7 19-238 limits assumed): as the sequence (Q9NZQ7 19-238) above

T1 sequence (Q9NZQ7 19-290 limits assumed): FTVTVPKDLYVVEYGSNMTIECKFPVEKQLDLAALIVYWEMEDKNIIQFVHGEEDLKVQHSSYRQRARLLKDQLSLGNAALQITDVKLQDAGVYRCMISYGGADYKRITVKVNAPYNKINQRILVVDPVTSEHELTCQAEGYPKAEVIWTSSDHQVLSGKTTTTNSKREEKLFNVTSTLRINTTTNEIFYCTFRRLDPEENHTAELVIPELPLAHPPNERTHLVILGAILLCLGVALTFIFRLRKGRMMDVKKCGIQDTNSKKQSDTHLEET

EC50 [1]: 2.93 nM
EC50 [2]: 0.029 nM
positive % [3]: 80.2%
EC50 [4]: 0.767 nM
B1: monoclonal antibody 9F6 (antibody, V domains shown)
VH: EVQLQQSGAELVKPGASVKLSCTASGFNIKDTYMYWVKQRPEQGLEWIGRIDPANGNTKYDPKFQGKATITADTSANTAYLQLSSLTSEDTAVYYCSRGPPGGIGEYIYAMDYWGQGTSVTVSS
VL: QIVLTQSPAIMSASLGERVTMTCTASSSVSSSYLHWYQQKPGSSPKLWIYSTSNLASGVPARFSGSGSGTSYSLTISSMEAEDAATYYCHQYHRSPPTFGGGTKLEI
notes: Murine antibody from a hybridoma

EC50 [1]: 2.3 nM
EC50 [2]: 0.031 nM
EC50 [5]: 0.817 nM
positive % [3]: 100%
EC50 [4]: 0.785 nM
B2: monoclonal antibody 5C10 (antibody, V domains shown)
VH: QVQLKESGPGLVAPSQNLSITCTVSGFSLSNYDISWIRQPPGKGLEWLGVIWTGGATNYNSAFMSRLSISRDNSKSQVFLKMNSLQTDDTAIYYCVRDSNYRYDEPFTYWGQGTLVTVSA
VL: DILLTQSPAILSVSPGERVSLSCRASQSIGTNIHWFQQRTNGSPRLLIKYASESISGIPSRFSGSGSGTDFTLSINSVESEDIADYYCQQSNSWPYTFGGGTKLEI
notes: Murine antibody purified from hybridoma supernatant; also called antibody of hybridoma cell strain LT005

EC50 [1]: 1.48 nM
EC50 [2]: 0.029 nM
positive % [3]: 60.3%
EC50 [4]: 0.838 nM
B3: monoclonal antibody 5F10 (antibody, V domains shown)
VH: EVQLQQSGAELVKPGASVKLSCTASGFDIKDTYIHWVKQRPEQGLEWIGRIDPADGNTRYDPKFQDKTTITTDTSSNTAHLQLSSLTSEDTAVYYCARGLGAWFASWGQGTLVTVSA
VL: DIQMTQTTSSLSASLGDRVTISCRASQDITNSLNWYQQKPDGTVKLLIHYTSRLHSGVPSRFSGSGSGTDYSLTISNLEQEDIATYFCQQGHTLPPTFGGGTKLEI
notes: as for B1
